Test results taken from doi:10.1101/2020.05.11.089193 (bioRxiv, 2020).
Where two headings read alike, the source gives them in different places.

B1: Porphyromonas gingivalis ATCC 33277 PorM (natural protein, UniProt B2RLE8 1-516, looked up)
chain: MAVGSNGNANRQKMINLMYLVFIAMMALNVSSEVLDGFDKVDKSLTSSIDGSDKRNNLVLSELNTAYRTNPEKVKVWYERSLVLQKEADSLCTFIDDLKLAIARESDGKDAKVNDIRRKDNLDASSVVMLNPINGKGSTLRKEVDKFRELVATLMTDKAKLKLIEQALNTESGTKGKSWESSLFENMPTVAAITLLTKLQSDVRYAQGEVLADLVKSVDVGDYRVNSITAQVIPQSQIVMSGDTYKANIVLSSVDTTQRPDVFVNGKLLSPENMGLFTATAGAPGTYPVKGYIEMMGNDGVKIRRDFESEYFVTEPMASVAPTMMNVLYAGIDNPINIAVPGVAQQNVSATINNGTLTRRGNLWIARPTKVGSEAIISVTAQSGGRTIQMAKTTLRVRALPDPLPYIEYKDVQGNTKRFKGGRLGKREILAAGGIKAALDDDLLEVNYTVVKFQLVFYDSMGNSIPEVSDGASFSERQKRQIQNLGKGKRFYVTEVIARGPDGIERKIPAIEVIVN
B2: Flavobacterium johnsoniae GldM C-terminally truncated after the first folded periplasmic domain (first 225 amino acids) (domain or fragment, UniProt Q5EGM3 1-225, looked up)
chain: MAGGKLTPRQKMINLMYLVFIAMLAMNVSKEVISAFGLMNEKFEAANTSSVTTNESLLTSLDQKAAEAKGEFAKAAETAHKVQAASKEFYDYIGTLKTQAVKGFEVDKETGKMPYEAMDRGDNIDDWFTGDGYTKKGNEIIAKIEKYKSDIKAALGTDKKYAGIISEVEKKFDVSDVKNKEGIKEKYLAYHFKGFPAIASAAKLSAWQNDVKKTEADVYNSALGK
B3: Flavobacterium johnsoniae GldL (natural protein, UniProt Q5EGM4 1-215, looked up)
chain: MALLSKKVMNFAYGMGAAVVIVGALFKITHFEIGPLTGTVMLSIGLLTEALIFALSAFEPVEDELDWTLVYPELANGQARKKEAKAETATDAQGLLSQKLDAMLKEAKVDGELMASLGNSIKNFEGAAKAISPTVDSIAGQKKYAEEMSMAAAQMESLNSLYKVQLESASRNAQANSEIAENAAKLKEQMASMTANIASLNSVYGGMLSAMSNKG

Columns and labels:
[1] = molecular target: the molecule itself; assay: cryo-EM structure
[2] = molecular target: the molecule itself; assay: cryo-EM structure; remark: listed apart in the source

Protein | stoichiometry N [1] | stoichiometry N [2]
B1 | 2 | –
B2 | – | 2
B3 | – | 5
